Assay results reported in patent US20070178531A1 (BIOCHECK, published 2007).
Residue numbers refer to the chain shown, from its start.

Columns and labels:
Mouse Id2: Histidine [1] = molecular target: T1, Mouse Id2: Histidine (mouse, UniProt P41136 1-134, limits assumed); test: ELISA, Ab 0.025 µg/ml
T1 construct: Fusion protein made in E. coli from vector pGW07; also called m-Id2: His; not shown: His tag
T1 sequence (looked up): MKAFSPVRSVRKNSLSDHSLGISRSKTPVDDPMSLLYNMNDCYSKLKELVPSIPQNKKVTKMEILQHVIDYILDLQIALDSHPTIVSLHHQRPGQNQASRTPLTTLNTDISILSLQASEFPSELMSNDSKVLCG
Method: (§1) The rabbit monoclonal anti-human Id3 (clone #3-3) and the rabbit monoclonal anti-mouse/human Id3 (clones #6-1, 16-1, 17-3, and 42-1) produced in Example 6 were tested reactivity against the following antigens: mouse Id1:His, human Id1:His, mouse Id2:His, human Id2:His, mouse Id3:His, human Id3:His, mouse Id4:His, human Id4:His and GST.
(§2) 1. Microtiter wells (prepared in accordance with Example 6) were coated (0.1 μg/well) with mouse Id1:His, human Id1:His, human Id2:His, human Id3:His, and 1.0 μg/well with GST. [0155] 2. Antibody Diluent: 0.25% (w/v) BSA in 0.015M KPO₄ Buffer, 0.85% (w/v) NaCl, 0.1% (w/v) NaN₃, pH=7.40 [0156] 3. Rabbit monoclonal anti-human Id3 (clone #3-3) prepared in Example 7 was diluted to […] with the antibody diluent. […] 4. Rabbit monoclonal anti-mouse/human Id3 (clones #6-1, 16-1, 17-3, 42-1) prepared in Example 7 was diluted to 0.005, 0.010, 0.025, 0.05, 0.10, 0.25, and 0.50 μg/ml with the antibody diluent. […] 5. Conjugate Diluent: 50% (v/v) which consists of an aqueous solution containing Fetal Bovine Serum in 0.05 M Tris, 1% (v/v) Proclin-300, pH 7.6. [0159] 6. Conjugate: Goat anti-rabbit IgG (H+L)-HRP conjugate. [0160] 7. TMB reagent. […] 8. Stop solution (1 N HCI). Method
(§3) 1. Dispense 100 μL of antibody diluent, diluted rabbit monoclonal human Id3, and mouse/human Id3 hybridoma supernatants into appropriate wells. […] 2. Incubate at room temperature with mechanical shaking at 750 rpm for 90 minutes. [0165] 3. Remove the incubation mixture by flicking plate content into an appropriate waste container followed by rinsing the wells 5 times with distilled water. [0166] 4. Strike the wells sharply onto absorbent paper or paper towels to remove all residual water droplets. [0167] 5. Dispense 100 μL of 1:50,000 Goat Anti-Rabbit IgG-HRP Conjugate Reagent into each well. Gently mix for 5 seconds. [0168] 6. Incubate at room temperature with mechanical shaking at 750 rpm for 90 minutes. [0169] 7. Repeat procedures 3 and 4. [0170] 8. Dispense 100 μL of TMB Reagent into each well. Gently mix for 5 seconds. [0171] 9. Incubate at room temperature with mechanical shaking at 750 rpm for 20 minutes. […] 10.

Mouse Id3: Histidine [2] = molecular target: T2, Mouse Id3: Histidine (mouse, UniProt P41133 1-119); test: ELISA, Ab 0.025 µg/ml
T2 construct: Fusion protein made in E. coli from vector pGW07; also called m-Id3: His; Mouse Id3 (coated wells); not shown: His tag
T2 sequence: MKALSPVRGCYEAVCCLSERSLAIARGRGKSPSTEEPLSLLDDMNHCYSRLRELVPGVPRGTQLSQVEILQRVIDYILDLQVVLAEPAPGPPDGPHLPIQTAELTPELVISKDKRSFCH
Method: as §1, §2, §3

Mouse Id1: Histidine [3] = molecular target: T3, Mouse Id1: Histidine (mouse, UniProt P20067-2 1-148, limits assumed); test: ELISA, Ab 0.025 µg/ml
T3 construct: Fusion protein made in E. coli from vector pGW07; also called m-Id1-His; not shown: His tag
T3 sequence (looked up): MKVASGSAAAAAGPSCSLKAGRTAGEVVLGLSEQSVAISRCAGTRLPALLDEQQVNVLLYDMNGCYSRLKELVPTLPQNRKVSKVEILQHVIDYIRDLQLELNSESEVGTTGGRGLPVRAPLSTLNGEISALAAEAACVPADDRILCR
Method: as §1, §2, §3

Human Id2: Histidine [4] = molecular target: T4, Human Id2: Histidine (human, UniProt Q02363 1-134, limits assumed); test: ELISA, Ab 0.025 µg/ml
T4 construct: Fusion protein made in E. coli from vector pGW07; also called h-Id2: His; not shown: His tag
T4 sequence (looked up): T1 sequence (looked up) with T60S, V131A
Method: as §1, §2, §3

Mouse Id2: Histidine [5] = molecular target: T1, Mouse Id2: Histidine; test: ELISA, Ab 0 µg/ml (blank)
Mouse Id3: Histidine [6] = molecular target: T2, Mouse Id3: Histidine; test: ELISA, Ab 0 µg/ml (blank)
Human Id1: Histidine = molecular target: T5, Human Id1: Histidine (human, UniProt P41134 1-155, limits assumed); test: ELISA, Ab 0 µg/ml (blank)
T5 construct: Fusion protein made in E. coli from vector pGW07; also called h-Id1: his; not shown: His tag
T5 sequence (looked up): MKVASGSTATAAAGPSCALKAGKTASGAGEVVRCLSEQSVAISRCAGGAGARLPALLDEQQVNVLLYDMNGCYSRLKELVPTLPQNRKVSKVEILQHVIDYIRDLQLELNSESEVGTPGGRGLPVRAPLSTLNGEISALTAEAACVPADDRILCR

Mouse Id1: Histidine [7] = molecular target: T3, Mouse Id1: Histidine; test: ELISA, Ab 0 µg/ml (blank)
Human Id2: Histidine [8] = molecular target: T4, Human Id2: Histidine; test: ELISA, Ab 0 µg/ml (blank)
Human Id3: Histidine = molecular target: T6, Human Id3: Histidine (human, UniProt Q02535 1-119 at identity 1.00)); test: ELISA, Ab 0 µg/ml (blank)
T6 construct: Fusion protein made in E. coli from vector pGW07; also called h-Id3: His; Human Id3 (coated wells); not shown: His tag
T6 chain: T2 sequence with S31G, S33A, T34A, T105A, K112N

B1: rabbit monoclonal anti-mouse/human Id3, clone #BCH-4/#16-1 (antibody, V domains shown)
VH: QSVEESGGRLVTPGTPLTLTCTASGFSLSSYYIHWVRQAPGKALEWIGYISDGGTTYYASWAKGRFTISKTSSTTVDLKMTSLTTEDTATYFCARQGFNIWGPGTLVTVSL
VL: AVLTQTPSPVSAAVGGTVTISCQSSQSVYNNNWLSWFQQKSGQPPKLLIYETSKLESGVPSRFKGSGSGTQFTLTIIDVQCDDAATYYCLGGYWTTSDNNIFGGGTEVVVK
notes: Rabbit IgG from a rabbit hybridoma; also called m/h Id3 MoAb 16-1
- A450 (Mouse Id2: Histidine [1]): 0.051 A450
- A450 (Mouse Id3: Histidine [2]): 0.953 A450
- A450 (Mouse Id1: Histidine [3]): 0.044 A450
- A450 (Human Id2: Histidine [4]): 0.045 A450

B2: rabbit monoclonal anti-mouse/human Id3, clone #BCH-4/#17-3 (antibody, V domains shown)
VH: B1 VH with S30N, Y31V, A43G, G54D, T56A, Y57R, S60T, D77N
VL: B1 VL with T19S, Y29W, S41P, I77S, I101V
notes: Rabbit IgG from a rabbit hybridoma; also called m/h Id3 MoAb 17-3; BCH-3/#17-3
- A450 (Mouse Id2: Histidine [1]): 0.05 A450
- A450 (Mouse Id3: Histidine [2]): 1.4 A450
- A450 (Mouse Id1: Histidine [3]): 0.045 A450
- A450 (Human Id2: Histidine [4]): 0.054 A450

B3: rabbit monoclonal anti-mouse/human Id3, clone #BCH-4/#6-1 (antibody, V domains shown)
VH: B1 VH with S30N, Y31V, A43G, G54D, T56A, Y57R, S60T, D77N
VL: B1 VL with T19S, Y29W, S41P, I77S, I101V
notes: Rabbit IgG from a rabbit hybridoma; also called m/h Id3 MoAb 6-1
- A450 (Mouse Id2: Histidine [5]): 0.058 A450
- A450 (Mouse Id3: Histidine [6]): 0.048 A450
- A450 (Human Id1: Histidine): 0.058 A450
- A450 (Mouse Id1: Histidine [7]): 0.061 A450
- A450 (Human Id2: Histidine [8]): 0.064 A450
- A450 (Human Id3: Histidine): 0.047 A450
- A450 (Mouse Id2: Histidine [1]): 0.048 A450
- A450 (Mouse Id3: Histidine [2]): 1.13 A450
- A450 (Mouse Id1: Histidine [3]): 0.046 A450
- A450 (Human Id2: Histidine [4]): 0.045 A450

B4: rabbit monoclonal anti-mouse/human Id3, clone #BCH-4/#42-1 (antibody, V domains shown)
VH: B1 VH
VL: B1 VL with T95S
notes: Rabbit IgG from a rabbit hybridoma; also called m/h Id3 MoAb 42-1
- A450 (Mouse Id2: Histidine [1]): 0.052 A450
- A450 (Mouse Id3: Histidine [2]): 1.58 A450
- A450 (Mouse Id1: Histidine [3]): 0.045 A450
- A450 (Human Id2: Histidine [4]): 0.071 A450

B5: rabbit monoclonal anti-human Id3, clone #BCH-4/#3-3 (antibody, V domains shown)
VH: QSVEESGGRLVTPGTPLTLTCTVSGIDLSSYAMSWVRQAPGKGLEWIGVIFPSNNVYYASWAKGRFTISKTSTTVDLKITSPTTEDTATYFCASMGAFDSWGPGTLVTVSS
VL: QVLTQTPSPVSAAVGGTVTINCQASQSIYNDNDLAWFQQKPGQPPKLLIYDASTLTSGVPSRFKGSGSGTQFTLTISDLDCDDAATYYCAARYSGNIYGFGGGTEVVVK
notes: Rabbit IgG from a rabbit hybridoma; also called h Id3 MoAb 3-3
- A450 (Mouse Id2: Histidine [1]): 0.048 A450
- A450 (Mouse Id1: Histidine [3]): 0.044 A450
- A450 (Human Id2: Histidine [4]): 0.044 A450
